From US20240018528A1, “A TUNABLE PHOSPHORYLATION-BASED FEEDBACK CONTROLLER OF MAMMALIAN GENE EXPRESSION” (Massachusetts Institute of Technology, priority 2020, published 2024) come the findings set out here.

The test system of this series is OmpR-VP64. Description: Screen of EnvZ variants for kinase and phosphatase activity on OmpR-VP64-driven output. To be noted: FIG. 3B. The class given is cell-based. From the text:
The well-studied EnvZ-OmpR system was used to develop feedback controllers of the present disclosure, using separate kinase and phosphatase variants of EnvZ, and an OmpR-VP64 fusion protein as an activator for promoting transcription of a reporter protein. Kinase and phosphatase variants of the HK EnvZ through mutation and/or truncation (FIG. 3A). […] However, the phosphatase EnvZ activity was weak compared to the EnvZm2 kinase. To create a stronger phosphatase, a DHp domain of EnvZ was fused to a leucine zipper GCN4 domain, with GCN4 at the N-terminus and EnvZm2 at the C-terminus, to lock the DHp domain of an HK into fixed conformations (FIG. 3C). […]
The phosphatase regulator was further modified to allow tunability by use of a small molecule. […] Expression of both proteins from the same nucleic acid and translation from the same mRNA, such as by separating coding sequences by a 2A motif or open reading frames IRES cassette, ensures maximal coupling of transcription and translation of the two proteins. […]
For quantifying the effects of EnvZ variants and perturbations, fold-changes were calculated by dividing the median output level of each sample by that of the equivalent sample in the absence of the EnvZ variant or perturbation. […]

B1: EnvZm2: kinase+/phosphatase− mutant of EnvZ containing a T247A mutation (SEQ ID NO: 3) (protein)
chain: MRRLRFSPRSSFARTLLLIVTLLFASLVTTYLVVLNFAILPSLQQFNKVLAYEVRMLMTDKLQLEDGTQLVVPPAFRREIYRELGISLYSNEAAEEAGLRWAQHYEFLSHQMAQQLGGPTEVRVEVNKSSPVVWLKTWLSPNIWVRVPLTEIHQGDFSPLFRYTLAIMLLAIGGAWLFIRIQNRPLVDLEHAALQVGKGIIPPPLREYGASEVRSVTRAFNHMAAGVKQLADDRTLLMAGVSHDLRAPLTRIRLATEMMSEQDGYLAESINKDIEECNAIIEQFIDYLRTGQEMPMEMADLNAVLGEVIAAESGYEREIETALYPGSIEVKMHPLSIKRAVANMVVNAARYGNGWIKVSSGTEPNRAWFQVEDDGPGIAPEQRKHLFQPFVRGDSARTISGTGLGLAIVQRIVDNHNGMLELGTSERGGLSIRAWLPVPVTRAQGTTKEG
With B1, the “kinase activity (phosphorylation of OmpR)” value is “particularly effective in phosphorylating OmpR”.
